From patent publication US20020110853A1

Molecular target: FLAG-TWEAKR, expressed on transfected HUVEC (human) (UniProt Q9NP84)
Test: cell-based or functional assay

FLAG-TWEAKR, expressed on transfected HUVEC (human), sequence (Q9NP84 28-129): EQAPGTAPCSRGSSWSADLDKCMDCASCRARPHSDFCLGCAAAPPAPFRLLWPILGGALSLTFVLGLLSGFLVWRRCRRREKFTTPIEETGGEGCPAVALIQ

BrdU incorporation of FLAG-TWEAKR expressing HUVEC, against goat anti-mouse IgG alone: 3 fold | BrdU incorporation of FLAG-TWEAKR expressing HUVEC, against vector-only transfected HUVEC with the cross-linking complex: 6 fold
Substance: M2 anti-FLAG monoclonal antibody
